From publication PMC2734165, “The Immune System Strikes Back: Cellular Immune Responses against Indoleamine 2,3-dioxygenase” (PLoS ONE, 2009)

How the values were obtained:
[1] = test system: established murine cancers; settings: ref [17]; cited from earlier work
Source text: The state of lymphopenia following high-dose chemotherapy appears to provide a window of enhanced responsiveness to immunotherapy. Additionally, certain chemotherapeutic drugs may assist in breaking immune tolerance by preferentially inhibition of Tregs, [47]. Nonetheless, chemotherapy alone is never sufficient to break tolerance to tumors probably because the original tolerogenic mechanisms rapidly restore tolerance following each cycle of chemotherapy. In principle, therefore, chemotherapy might provide an environment in which IDO-based immunotherapy could have a synergistic ...

[2] = test system: breast cancer cell line CAMA-1; experiment: 51Cr-release assay, CAMA-1; type: cell-based; settings: IFN-γ 100 U/ml for 2 days
Protocol: (§1) Conventional ^51Cr-release assays for CTL-mediated cytotoxicity was carried out as described elsewhere. Target cells were T2-cells, in vitro generated autologous immature DC (iDC) and matured DC (mDC), in vitro generated allogeneic HLA-A2^+ iDC and mDC, autologous ex vivo isolated monocytes, T cells and B cells (isolated using CD14^+, CD3^+ or CD19^+ microbeads (MACS)), the natural killer target cell line K562, ex vivo enriched HLA-A2^+ AML-blasts (B and T cells were depleted from the bone marrow of AML patients using CD19^+ and CD3^+ microbeads (MACS)), the breast cancer cell lines CAMA-1 and MDA-MB-231, as well as the colon cancer cell lines HCT-116 and SW480 (all available at the American Type Culture Collection (ATCC)), and FM55M [27]. Lysis were blocked using the HLA specific mAb W6/32 (2 µg/100 µl). In some assays, target cells were treated with 100 U/ml IFN-γ for 2 days.
(§2) Figure 5 Functional capacity of IDO5-specific T cells to kill cancer cell lines treated with IFN-γ for up-regulation of IDO, or treated with IDO ShRNA for down-regulation of IDO. […] Intracellular IDO expression was given by a one-tailed two sampled t-test comparing MFIIDO (dark histograms) and MFIIsotype control (light histograms), where MFI is the Mean Fluorescence Intensity. […]

[3] = test system: breast cancer cell line MDA-MB-231; experiment: 51Cr-release assay, MDA-MB-231; type: cell-based; settings: IFN-γ 100 U/ml for 2 days
Protocol: as §1, §2

[4] = test system: autologous CD14^+ monocytes, CD3^+ T cells and CD19^+ B cells; experiment: 51Cr-release assay, autologous monocytes, T cells and B cells; type: cell-based; settings: CD19^+ B cells after IFN-γ treatment
Source text: Target cells were T2-cells, in vitro generated autologous immature DC (iDC) and matured DC (mDC), in vitro generated allogeneic HLA-A2^+ iDC and mDC, autologous ex vivo isolated monocytes, T cells and B cells (isolated using CD14^+, CD3^+ or CD19^+ microbeads (MACS)), the natural killer target cell line K562, ex vivo enriched HLA-A2^+ AML-blasts (B and T cells were depleted from the bone marrow of AML patients using CD19^+ and CD3^+ microbeads (MACS)), the breast cancer cell lines CAMA-1 and MDA-MB-231, as well as the colon cancer cell lines HCT-116 and SW480 (all available at the American Type Culture Collection (ATCC)), and FM55M [27]. Lysis were blocked using the HLA specific mAb W6/32 (2 µg/100 µl) [28]. In some assays, target cells were treated with 100 U/ml IFN-γ for 2 days.
Next, we tested the ability of RBS35 to lyse autologous monoctyes, T cells and B cells. For this purpose, we isolated CD14^+ monocytes, CD3^+ T cells and CD19^+ B cells directly ex vivo from IDO^+ PBMC. The isolated cells were subsequently used as target cells in a ^51Cr-release assay.
All assays were performed in different E∶T ratios. […] ( c ), Lysis of autologous CD14^+ monocytes, CD3^+ T cells and CD19^+ B cells isolated directly ex vivo from IDO^+ PBMC, and lysis of autologous CD14^+ monocytes, CD3^+ T cells and CD19^+ B cells after IFN-γ treatment. […]

[5] = test system: IDO in CAMA-1 and MDA-MB-231; experiment: Intracellular IDO staining, breast cancer cell lines; type: cell-based
Protocol: PBMC, DC, and cancer cells were examined for intracellular IDO expression using flow cytometry. After fixation and permeabilization (Cytofix/Cytoperm, BD), cells were stained with anti-IDO antibody (Millipore Corporation). For comparison, cells were stained with an isotype matched control (Millipore Corporation). After incubation, cells were washed twice with Perm/Washbuffer (BD) before staining with a FITC-labeled secondary antibody (DAKO). The samples were analyzed on BD FACS Aria, using DIVA software (BD Biosciences). Assuming normality, intracellular IDO expression was given by a one-tailed two sampled t-test comparing MFIIDO and MFIIsotype control, where MFI is the Mean Fluorescence Intensity. […]
(§3) Statistical analysis was performed on data on intracellular IDO staining. Assuming normality, intracellular IDO expression was given by a one-tailed two sampled t-test comparing MFIIDO and MFIIsotype control, where MFI is the Mean Fluorescence Intensity. […] HLA-A2 expression was determined using the same approach.
as §2

[6] = test system: HLA-A2 on CAMA-1 and MDA-MB-231; experiment: HLA-A2 surface staining, breast cancer cell lines; type: cell-based
Protocol: Cancer cells were examined for HLA-A2 expression using flow cytometry. Cells were stained with a fluorochrome-coupled HLA-A2 mAb (BD Bioscience). For comparison, cells were stained with an isotype matched control. The samples were analyzed on BD FACS Aria, using DIVA software (BD Biosciences). Assuming normality, HLA-A2 expression was given by a one-tailed two sampled t-test comparing MFIHLA-A2 and MFIIsotype control, where MFI is the Mean Fluorescence Intensity. For p-values <0.05 (significance level) cells were defined HLA-A2^+. The fold of expression was defined as MFIHLA-A2/MFIIsotype control.
as §3, with “Intensity. For p-values <0.05 (significance level) cells were defined IDO^+.” for “Intensity.”
as §2

[7] = CAMA-1 and MDA-MB-231, IFN-γ 100 U/ml for 2 days

Cn1cc(C[C@H](N)C(=O)O)c2ccccc21 [1-Methyl-Tryptophan]
Synergy with chemotherapy drugs [1]: work synergistically with different chemotherapy drugs in established murine cancers

B1: IFN-γ: IFN-γ, 100 U/ml for 2 days (protein, UniProt P01579 24-161, looked up)
Interferon gamma: QDPYVKEAENLKKYFNAGHSDVADNGTLFLGILKNWKEESDRKIMQSQIVSFYFKLFKNFKDDQSIQKSVETIKEDMNVKFFNSNKKKRDDFEKLTNYSVTDLNVQRKAIHELIQVMAELSPAAKTGKRKRSQMLFRG
Effect on killing of CAMA-1 by RBS35 [2]: increased the killing by RBS35 of CAMA-1 | Effect on killing of MDA-MB-231 by RBS35 [3]: introduced killing of the MDA-MB-231 cells | Effect of IFN-γ on killing of autologous immune cells by RBS35 [4]: introduced killing of the CD14^+ monocytes, but not of the T and B cells | Fold of IDO expression, MFIIDO/MFIIsotype control ([5]; CAMA-1 + IFN-γ treatment, p = 0.004, before treatment 2.3 (p = 0.020), representative of 3 experiments): 3.5 | IDO expression after treatment [5, 7]: increased the expression of IDO and HLA-A2 in both cell lines | Fold of HLA-A2 expression (printed as MFIIDO/MFIHLA-A2) ([6]; CAMA-1 + IFN-γ treatment, p = 0.002, before treatment 43.7 (p = 0.004), representative of 3 experiments): 141.2 | HLA-A2 expression after treatment [6, 7]: increased the expression of IDO and HLA-A2 in both cell lines
